Source: patent US20180193457A1 (University of Washington, published 2018)

Legend:
[1] = target: T1, wild-type FimH adhesin variant of the uropathogenic E. coli strain J96 (FimH^wt) (uropathogenic E. coli strain J96, UniProt P08191 22-300); test: cell-based or functional assay
[2] = target: T1, wild-type FimH adhesin variant of the …; test: SPR2 (Analytical Biopharmacy Core), FimH^wt fimbriae on CM5 chip, mAb as analyte, 1:1 Langmuir model

B1: mAb926 (antibody, V domains shown)
VH: QVQLQQSGAELATPGASVKMSCKASGYTSTNYWIHWVKQRPGQGLEWIGYINPTSGYTEYNQNFKDKATLTADKSSSTAYMQLTSLTSEDSAVYYCARGVIRDFWGQGTTLTVSS
VL: DVLMTQTPLSLPVSLGDQASISCRSSQNIVHNNGNTYLEWYLQSPGQSPKLLIYKVSNRFSGVPDRFSGSGSGTDFTLKISRVEAEDLGVYYCFQGSHVPFTFGSGTKLEIK
notes: also called mA926; mAb296
B1 was tested, and the “half-maximal inhibitory concentration (IC50) of bacterial adhesion to mannosylated (yeast mannan) surfaces” value [1] was 0.4 nM and the Kd [2] was 0.22 nM.
